Experimental data reported in publication PMC12352893, “Neuraminidase 1 secondary deficiency contributes to CNS pathology in neurological mucopolysaccharidoses via brain protein hypersialylation” (The Journal of Clinical Investigation, 2025).

Biological target: the molecule itself
Assay: SEC; gel filtration of total protein extracts from brain tissue of WT mice; GLB1 and NEU1 enzymatic activities measured in the eluted fractions

B1: β-galactosidase (GLB1), mouse brain (enzyme, mouse (endogenous in brain tissue), UniProt P23780 30-647, looked up)
chain: QRTFKLDYSRDRFLKDGQPFRYISGSIHYFRIPRFYWEDRLLKMKMAGLNAIQMYVPWNFHEPQPGQYEFSGDRDVEHFIQLAHELGLLVILRPGPYICAEWDMGGLPAWLLEKQSIVLRSSDPDYLVAVDKWLAVLLPKMKPLLYQNGGPIITVQVENEYGSYFACDYDYLRFLVHRFRYHLGNDVILFTTDGASEKMLKCGTLQDLYATVDFGTGNNITQAFLVQRKFEPKGPLINSEFYTGWLDHWGKPHSTVKTKTLATSLYNLLARGANVNLYMFIGGTNFAYWNGANTPYEPQPTSYDYDAPLSEAGDLTKKYFALREVIQMFKEVPEGPIPPSTPKFAYGKVALRKFKTVAEALGILCPNGPVKSLYPLTFTQVKQYFGYVLYRTTLPQDCSNPKPIFSSPFNGVRDRAYVSVDGVPQGILDRNLMTALNIRGKAGATLDILVENMGRVNYGRFINDFKGLISNMTINSTVLTNWTVFPLNTEAMVRNHLWGREASDEGHLDGRSTSNSSDLILPTFYVGNFSIPSGIPDLPQDTFIQFPGWSKGQVWINGFNLGRYWPTMGPQKTLFVPRNILTTSAPNNITVLELEFAPCSEGTPELCTVEFVDTPVIS
notes: β-galactosidase (GLB1), mouse, endogenous in brain extracts; detected by its enzymatic activity in gel-filtration fractions; Eluted both in the ~1,200 kDa LMC peak and as a 240 kDa tetramer; also called lysosomal β-galactosidase; source: endogenous, total protein extracts from mouse brain tissue
  stoichiometry N: 4
